Experiments:
[1] = molecular target: His-tagged PrgU (Enterococcus faecalis (plasmid pCF10)); test: GEMMA
[2] = molecular target: His-tagged PrgU (Enterococcus faecalis (plasmid pCF10)); test: SEC-MALS

## His-tagged PrgU (natural protein)
[1]
  stoichiometry N: 2
[2]
  stoichiometry N: 2
